Laboratory results as given in patent US20030040012A1 (published 2003).
Changes are numbered by the printed parent chain. In names and notes the source's numbering stands.

What was measured:
NpwBP = biological target: T1, NpwBP (Homo sapiens (Human), UniProt Q9Y2W2 1-641); experiment: competition by co-expression in COS7 cells, GFP localization
T1 construct: Expressed inside COS7 cells, without an added protein A because it has its own nuclear localization signal
T1 sequence: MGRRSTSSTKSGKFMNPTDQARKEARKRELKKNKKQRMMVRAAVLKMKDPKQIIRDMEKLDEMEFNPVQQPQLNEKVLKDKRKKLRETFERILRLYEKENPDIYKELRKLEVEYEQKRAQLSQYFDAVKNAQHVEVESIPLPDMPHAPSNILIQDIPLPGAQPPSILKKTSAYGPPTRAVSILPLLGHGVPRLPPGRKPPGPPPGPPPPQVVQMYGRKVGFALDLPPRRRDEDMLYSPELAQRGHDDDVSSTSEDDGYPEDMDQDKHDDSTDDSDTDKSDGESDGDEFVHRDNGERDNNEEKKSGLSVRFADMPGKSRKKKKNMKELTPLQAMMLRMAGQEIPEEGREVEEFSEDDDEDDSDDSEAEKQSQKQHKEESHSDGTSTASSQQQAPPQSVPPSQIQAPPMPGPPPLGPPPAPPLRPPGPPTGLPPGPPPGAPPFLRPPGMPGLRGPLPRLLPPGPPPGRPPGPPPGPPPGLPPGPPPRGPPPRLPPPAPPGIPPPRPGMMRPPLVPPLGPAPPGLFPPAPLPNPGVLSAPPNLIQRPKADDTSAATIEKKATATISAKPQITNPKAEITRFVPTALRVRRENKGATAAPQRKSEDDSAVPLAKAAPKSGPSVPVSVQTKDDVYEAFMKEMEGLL

[1] = biological target: T2, fusion protein NpwBP(P2)-GFP (UniProt P42212 1-238 = GFP, limits assumed); experiment: co-expression in COS7 cells, fluorescence microscopy of GFP localization
T2 construct: Expressed inside COS7 cells from pKA1-NpwBP(P2)-GFP; also called NpwBP-GFP
Method: After the medium was removed, the cell sur were washed with a phosphate buffer solution (PBS), and then further washed with a 50 mM Tris-HCl (pH 7.5)-containing DMEM. To these cells, added was a suspension comprising 1 μl of a plasmid suspension, 0.6 ml of DMEM and 3 μl of […]™ (from IBF), and incubated in the presence of 5% CO₂ at 37° C. for 12 hours. Then, the cells were washed with PBS, and fixed with 4% peraformaldehyde-containing PBS at room temperature for 10 minutes. The thus-fixed cells were washed with PBS, then treated with 0.2% Triton X-100, and thereafter blocked with 5% milk PBS. […]
First, pKA1-NpwBP(P1)-GFP or pKA1-NpwBP(P2)-GFP was singly introduced into COS7 cells, and the localization of these fusion proteins in the cells was checked through fluorescence microscopy based on the green fluorescence of GFP as the index thereof. […] Next, along with these NpwBP-GFP fusion protein expression vectors, an Npw38 expression vector, pKA1-Npw38 was introduced into COS7 cells, and the green fluorescence was localized in the nucleus of each cell (FIG. 3b). […] On the other hand, when Npw38(W52A) (A. Komuro et al., Nucl. Acids Res., 27: 1957-1965, 1999), which is a WW domain variant of Npw38, was expressed in the cells in place of HA-Npw38, or when GFP was expressed in the cells in place of NpwBP-GFP, no intranuclear localization of the green fluorescence was found.

B1: fusion protein HA-Npw38 (other)
chain: MPLPVALQTRLAKRGILKHLEPEPEEEIIAEDYDDDPVDYEATRLEGLPPSWYKVFDPSCGLPYYWNADTDLVSWLSPHDPNSVVTKSAKKLRSSNADAEEKLDRSHDKSDRGHDKSDRSHEKLDRGHDKSDRGHDKSDRDRERGYDKVDRERERDRERDRDRGYDKADREEGKERRHHRREELAPYPKSKKAVSRKDEELDPMDPSSYSDAPRGTWSTGLPKRNEAKTGADTTAAGPLFQQRPYPSPGAVLRANAEASRTKQQD
notes: All are treated as the same molecule; not shown: HA tag (protein A of fusion A-X)
binding result (NpwBP): binds | binding result [1]: binds

B2: Npw38(W52A), a WW domain variant of Npw38 (other)
chain: B1 chain with W52A
notes: Expressed in COS7 cells in place of HA-Npw38
binding result [1]: no binding
